Target: T1, NtbZIP (Nicotiana tabacum, UniProt Q4PKH1 1-400)
T1 sequence: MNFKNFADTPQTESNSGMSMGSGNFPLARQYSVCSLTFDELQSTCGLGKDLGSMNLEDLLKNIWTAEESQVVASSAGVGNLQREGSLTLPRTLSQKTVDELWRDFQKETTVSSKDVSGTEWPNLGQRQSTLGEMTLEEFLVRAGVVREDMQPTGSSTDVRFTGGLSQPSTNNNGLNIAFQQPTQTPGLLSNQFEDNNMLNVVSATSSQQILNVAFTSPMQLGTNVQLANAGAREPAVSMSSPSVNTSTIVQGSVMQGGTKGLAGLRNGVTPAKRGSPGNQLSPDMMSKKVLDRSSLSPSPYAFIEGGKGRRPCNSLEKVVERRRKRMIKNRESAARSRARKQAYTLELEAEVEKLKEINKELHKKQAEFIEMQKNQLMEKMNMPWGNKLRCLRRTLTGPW
Experiment: EMSA

B1: 4x G-box of PNZIP promoter (dsDNA)
DNA 1: GCCACGTGTCGCCACGTGTCGCCACGTGTCGCCACGTGTC
DNA 2: GACACGTGGCGACACGTGGCGACACGTGGCGACACGTGGC
  binding result: binds

Reference: PMC2677881
